Paper PMC11989107, “Biochemical and Structural Characterization of a Highly Glucose-Tolerant β-Glucosidase from the Termite Reticulitermes perilucifugus” (International Journal of Molecular Sciences, 2025)

Tested on: O=[N+]([O-])c1ccc(O[C@@H]2O[C@H](CO)[C@@H](O)[C@H](O)[C@H]2O)cc1
Assay: purified protein
Conditions: 37 °C, 20 mM phosphate buffer pH 7.0, 1-20 mM pNPG

Sequence of RpBgl8 (Reticulitermes perilucifugus) (chain, as listed by the source): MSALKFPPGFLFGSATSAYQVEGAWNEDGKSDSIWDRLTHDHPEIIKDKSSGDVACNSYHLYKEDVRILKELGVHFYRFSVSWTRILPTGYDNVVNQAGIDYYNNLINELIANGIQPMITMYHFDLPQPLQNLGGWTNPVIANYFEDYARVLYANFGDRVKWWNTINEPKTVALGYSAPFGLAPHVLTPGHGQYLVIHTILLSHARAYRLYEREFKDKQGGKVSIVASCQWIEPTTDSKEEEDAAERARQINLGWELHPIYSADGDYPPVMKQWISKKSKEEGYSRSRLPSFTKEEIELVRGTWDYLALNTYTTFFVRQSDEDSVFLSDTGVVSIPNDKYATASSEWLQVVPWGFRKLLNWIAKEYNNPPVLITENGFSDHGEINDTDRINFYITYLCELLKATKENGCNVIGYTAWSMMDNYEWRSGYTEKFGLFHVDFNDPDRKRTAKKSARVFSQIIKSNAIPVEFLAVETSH

## RpBgl8 (Reticulitermes perilucifugus)
  Km: 5.4 mM
  kcat: 0.17 s⁻¹
